According to patent publication US20170240645A1 (Genentech, published 2017):

Assays:
human PMEL17 = target: T1, human PMEL17 (human, UniProt P40967 25-661); experiment: FACS on live cells, hybridoma supernatant
T1 construct: Untagged PMEL17 as it occurs on melanoma cell lines, normal human melanocytes, PC3 cells stably expressing PMEL17 cDNA, and in human tissue sections; also called Melanocyte protein PMEL17
T1 sequence: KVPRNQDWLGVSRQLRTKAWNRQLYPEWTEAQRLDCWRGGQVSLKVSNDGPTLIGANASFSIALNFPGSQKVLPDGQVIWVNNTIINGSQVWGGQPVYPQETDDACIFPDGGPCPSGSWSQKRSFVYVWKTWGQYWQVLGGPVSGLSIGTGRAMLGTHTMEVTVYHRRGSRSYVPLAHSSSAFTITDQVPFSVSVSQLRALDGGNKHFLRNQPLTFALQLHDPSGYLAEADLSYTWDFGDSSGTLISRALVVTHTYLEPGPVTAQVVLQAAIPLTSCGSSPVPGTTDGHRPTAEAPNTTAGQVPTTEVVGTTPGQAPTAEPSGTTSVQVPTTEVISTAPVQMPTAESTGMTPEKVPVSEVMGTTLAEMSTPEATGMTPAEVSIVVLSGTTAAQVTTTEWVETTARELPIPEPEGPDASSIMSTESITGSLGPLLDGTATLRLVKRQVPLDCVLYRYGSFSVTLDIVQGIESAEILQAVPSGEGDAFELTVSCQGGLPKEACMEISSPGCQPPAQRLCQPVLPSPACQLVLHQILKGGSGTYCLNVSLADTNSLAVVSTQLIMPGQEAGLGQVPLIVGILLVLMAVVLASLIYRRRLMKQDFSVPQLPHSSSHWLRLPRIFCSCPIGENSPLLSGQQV
Description: After 10-14 days, the supernatants were harvested and screened by ELISA and FACS. For FACS analysis, melanoma cell lines SK-MEL-23 (provided by Paul Robbins, Center for Cancer Research, Tumor Immunology Section), 1300mel (provided by Paul Robbins, Center for Cancer Research, Tumor Immunology Section), SKMELS (ATCC HTB-70), and UACC257 (National Cancer Institute), normal melanocytes (Invitrogen, Carlsbad, Calif.), and the prostate cancer cell line PC3 stably expressing human PMEL17 were contacted with antibody. One antibody from the PMEL17-immunized mice, designated 17A9, reacted strongly by fluorescent activated cell sorting (FACS) with live melanoma cells, normal human melanocytes and a PC3 cell line stably expressing PMEL17 cDNA, but not the parental PC3 cell line. Another antibody, 77E6, obtained from the DNA-immunized mice, was also positive by FACS, although 77E6 reacted with live cell lines expressing PMEL17 somewhat inconsistently and more weakly than 17A9.

[1] = target: T2, PMEL17 25-125 with an N-terminal gD tag and a C-terminal GPI anchor (human, UniProt P40967 25-125, C-terminal GPI anchor); experiment: FACS on transiently transfected 293 cells
T2 construct: C-terminal deletion, transiently expressed on 293 cells
T2 sequence: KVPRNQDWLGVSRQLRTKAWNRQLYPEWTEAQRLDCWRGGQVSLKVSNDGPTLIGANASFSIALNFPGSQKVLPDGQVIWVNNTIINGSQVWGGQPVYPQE
Description: (§1) In addition, C-terminal deletions with an N-terminal gD tag and a C-terminal GPI anchor were transiently transfected into 293 cells and analyzed for antibody binding by FACS. The C-terminal deletions tested included PMEL172₅₋₁₂₅, PMEL17₂₅₋₁₀₅, PMEL17₂₅₋₈₅, PMEL17₂₅₋₆₅, and PMEL17₂₅₋₄₅.

[2] = target: T3, PMEL17 25-105 with an N-terminal gD tag and a C-terminal GPI anchor (human, UniProt P40967 25-105, C-terminal GPI anchor); experiment: FACS on transiently transfected 293 cells
T3 construct: C-terminal deletion, transiently expressed on 293 cells
T3 sequence: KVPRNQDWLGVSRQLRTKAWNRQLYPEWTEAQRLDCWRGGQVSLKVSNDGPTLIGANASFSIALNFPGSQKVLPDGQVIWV
Description: as §1

[3] = target: T4, PMEL17 25-85 with an N-terminal gD tag and a C-terminal GPI anchor (human, UniProt P40967 25-85, C-terminal GPI anchor); experiment: FACS on transiently transfected 293 cells
T4 construct: C-terminal deletion, transiently expressed on 293 cells
T4 sequence: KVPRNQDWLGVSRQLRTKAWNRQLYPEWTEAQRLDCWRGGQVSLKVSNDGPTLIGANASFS
Description: as §1

[4] = target: T5, PMEL17 25-65 with an N-terminal gD tag and a C-terminal GPI anchor (human, UniProt P40967 25-65, not fully specified; C-terminal GPI anchor); experiment: FACS on transiently transfected 293 cells
T5 construct: C-terminal deletion, transiently expressed on 293 cells
T5 chain: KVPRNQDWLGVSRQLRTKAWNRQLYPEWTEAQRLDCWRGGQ
Description: as §1

[5] = target: T6, PMEL17 N-terminal deletion mutant Δ255 (human, UniProt P40967 256-661); experiment: immunoblot of cell lysates
T6 construct: the real construct lacks the N-terminal part; Tested in cell lysates by immunoblot
T6 sequence: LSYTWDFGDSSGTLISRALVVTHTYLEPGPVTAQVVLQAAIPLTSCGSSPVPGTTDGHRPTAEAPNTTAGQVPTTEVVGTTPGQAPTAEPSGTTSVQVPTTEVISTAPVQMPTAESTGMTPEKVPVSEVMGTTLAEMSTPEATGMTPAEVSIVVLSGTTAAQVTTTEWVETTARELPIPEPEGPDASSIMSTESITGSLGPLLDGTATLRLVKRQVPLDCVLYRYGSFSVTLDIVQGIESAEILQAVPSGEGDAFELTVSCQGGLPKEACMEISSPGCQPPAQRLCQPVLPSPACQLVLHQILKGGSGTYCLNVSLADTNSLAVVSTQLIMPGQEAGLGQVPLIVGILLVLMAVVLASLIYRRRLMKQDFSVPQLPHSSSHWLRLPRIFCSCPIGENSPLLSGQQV

B1: 17A9 (antibody, V domains shown)
VH: EVQLQQSGPELVKPGASMKISCKSSGYSFTRYTMNWVKQSHGKNLEWIGVINPYNGGTVYNQKFKGKATLTVDKSSSTAYMELLSLTSEDSAVYYCARTDYDGYAMDYWGQGTSVTVSS
VL: DVQITQSPSYLAASPGETITINCRATKSISKYLAWYQEQPGKTNNLLIYSGSTLQSGIPSRFSGSGSGTDFTLTISSLEPEDFAMYYCQQHNEYPYTFGSGTKLEIK
notes: Mouse monoclonal antibody from a hybridoma (mice immunized with PMEL17 ECD-Fc); also called anti-PMEL17 antibody 17A9
binding result (human PMEL17): binds | binding result [1]: binds | binding result [2]: no binding | binding result [3]: no binding | binding result [4]: no binding | binding result [5]: no binding
